Experimental data: paper doi:10.1101/2024.03.17.585388

Molecular target: NTD_GS_CTD (NP NTD and CTD joined by a 14 residue artificial linker, no tails) (SARS-CoV-2)
Test: […]

For “NTD_GS_CTD (NP NTD and CTD joined by a 14 residue artificial linker, no tails) (domain or fragment)”, the stoichiometry N was 2.
